The values below come from patent publication CN110577600A (SHANGHAI INST MATERIA MEDICA CAS; NANJING LEADS BIOLABS …, dated 2019).

In the assay the target is T1, 重组人GPC3蛋白 (human, UniProt P51654 25-559, limits assumed).
T1 construct: also called 磷脂酰肌醇聚糖蛋白3
Briefly: SPR, Biacore X100; antibody captured on goat anti-human Fc gamma CM5 chip, human GPC3 10nM-80nM as analyte, 1:1 Langmuir model.

T1 sequence (P51654 25-559 limits assumed): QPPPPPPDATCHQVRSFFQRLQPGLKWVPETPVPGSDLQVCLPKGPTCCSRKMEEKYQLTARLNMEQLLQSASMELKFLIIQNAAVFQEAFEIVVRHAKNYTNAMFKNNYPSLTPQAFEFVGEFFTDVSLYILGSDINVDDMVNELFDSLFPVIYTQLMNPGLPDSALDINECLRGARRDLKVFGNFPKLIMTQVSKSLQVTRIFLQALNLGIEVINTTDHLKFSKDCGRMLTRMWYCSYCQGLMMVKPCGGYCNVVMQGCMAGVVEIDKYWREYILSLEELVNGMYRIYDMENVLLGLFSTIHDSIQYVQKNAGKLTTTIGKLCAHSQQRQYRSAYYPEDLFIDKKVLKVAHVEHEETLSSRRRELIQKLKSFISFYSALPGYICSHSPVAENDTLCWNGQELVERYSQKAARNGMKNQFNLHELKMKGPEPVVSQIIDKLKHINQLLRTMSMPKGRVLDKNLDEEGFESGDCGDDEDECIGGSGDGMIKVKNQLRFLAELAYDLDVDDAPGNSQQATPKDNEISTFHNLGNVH

B1: 抗体GPC3-6 (antibody, human IgG1, lambda, V domains shown)
VH: QVHLVQSGAEVQKPGSSVKVSCKASGGTFSSYGINWVRQAPGQGLEWMGWISAYNGNTNYAQKLQGRVTMTTDTSTSTAYMELRSLRSDDTAVYYCARGSGLLPRIGGYWGKGTMVTVSS
VL: LSSELTQDPAVSVPLGQTVRITCRGDSLRTFYATWYQQKPGQAPVRVIYRKNNRPSGIPDRFSGSSSGNTASLTITGAQAEDEADYYCNSRDSSGDHLVFGTGTKLTVLG
notes: Selected from a phage display antibody library against GPC3; In SPR it was captured through goat anti-human Fc gamma; also called 人抗GPC3抗体GPC3-6; 抗GPC3抗体
Molecule B1 showed a Kd of 3.77 nM, an off-rate constant (koff) of 0.000719 s⁻¹ and an on-rate (kon) of 190000 M⁻¹ s⁻¹.
